This passage reports Fold diff results from US20220332804A1 (CSL INNOVATION, published 2022).

What all share (assay): SPR, KD relative to WT C2;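 note: biacore SPR at 37 °C, anti-C2 mAbs captured on anti-human IgG chips with alanine or serine point mutants of C2 as analyte, KD from 1:1 fit compared with wild-type C2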
On the technique in general: SPR reads the build-up and loss of mass on a sensor chip optically.

In one test the target is T1, human C2 F270A (human, UniProt P06681 21-752).
T1 sequence: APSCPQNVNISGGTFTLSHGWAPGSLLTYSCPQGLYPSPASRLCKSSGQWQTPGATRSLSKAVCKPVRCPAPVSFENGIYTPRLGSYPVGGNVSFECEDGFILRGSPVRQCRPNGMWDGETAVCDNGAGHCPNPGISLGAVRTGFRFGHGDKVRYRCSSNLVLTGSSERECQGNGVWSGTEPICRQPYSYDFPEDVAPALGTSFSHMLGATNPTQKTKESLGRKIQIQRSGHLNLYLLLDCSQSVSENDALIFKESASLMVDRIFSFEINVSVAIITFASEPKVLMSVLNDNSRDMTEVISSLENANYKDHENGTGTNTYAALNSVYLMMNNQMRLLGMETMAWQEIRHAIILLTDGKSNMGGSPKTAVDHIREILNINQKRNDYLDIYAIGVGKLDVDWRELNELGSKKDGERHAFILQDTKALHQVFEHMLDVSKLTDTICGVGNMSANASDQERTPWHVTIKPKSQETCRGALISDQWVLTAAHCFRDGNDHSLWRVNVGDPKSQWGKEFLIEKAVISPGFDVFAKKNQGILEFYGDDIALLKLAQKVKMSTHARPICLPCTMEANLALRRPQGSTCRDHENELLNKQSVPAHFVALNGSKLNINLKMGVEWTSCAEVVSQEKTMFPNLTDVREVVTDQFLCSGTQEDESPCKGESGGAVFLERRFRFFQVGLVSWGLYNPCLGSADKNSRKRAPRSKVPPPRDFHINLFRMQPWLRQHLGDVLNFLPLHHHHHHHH

Another test addresses T2, human C2 N268A (human, UniProt P06681 21-752).
T2 sequence: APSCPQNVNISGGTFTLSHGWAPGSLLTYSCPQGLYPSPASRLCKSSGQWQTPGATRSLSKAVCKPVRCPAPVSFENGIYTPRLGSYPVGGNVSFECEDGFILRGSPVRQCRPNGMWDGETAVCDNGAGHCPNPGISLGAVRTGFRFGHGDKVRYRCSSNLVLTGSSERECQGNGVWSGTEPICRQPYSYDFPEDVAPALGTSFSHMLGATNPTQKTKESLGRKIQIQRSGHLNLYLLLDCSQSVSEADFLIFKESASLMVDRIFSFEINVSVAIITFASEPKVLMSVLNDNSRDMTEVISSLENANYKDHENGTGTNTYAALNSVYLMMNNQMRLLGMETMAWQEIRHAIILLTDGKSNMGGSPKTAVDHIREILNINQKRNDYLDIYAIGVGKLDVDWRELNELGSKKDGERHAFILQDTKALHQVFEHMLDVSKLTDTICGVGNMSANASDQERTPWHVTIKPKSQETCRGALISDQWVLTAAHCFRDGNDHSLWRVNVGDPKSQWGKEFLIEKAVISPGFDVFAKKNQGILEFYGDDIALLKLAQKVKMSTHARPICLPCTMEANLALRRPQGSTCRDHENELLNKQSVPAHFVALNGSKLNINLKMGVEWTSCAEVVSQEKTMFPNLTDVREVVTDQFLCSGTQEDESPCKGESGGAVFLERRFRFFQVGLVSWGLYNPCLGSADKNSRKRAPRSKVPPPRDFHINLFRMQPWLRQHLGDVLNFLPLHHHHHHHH

Test [1] has as its target T3, human complement C2 (wild type) (human, UniProt P06681 21-752).
T3 construct: Full-length human C2 (NP_000054) with C-terminal 8x His tag, secreted from Expi293F cells and purified from the supernatant; also called WT; huC2
T3 sequence: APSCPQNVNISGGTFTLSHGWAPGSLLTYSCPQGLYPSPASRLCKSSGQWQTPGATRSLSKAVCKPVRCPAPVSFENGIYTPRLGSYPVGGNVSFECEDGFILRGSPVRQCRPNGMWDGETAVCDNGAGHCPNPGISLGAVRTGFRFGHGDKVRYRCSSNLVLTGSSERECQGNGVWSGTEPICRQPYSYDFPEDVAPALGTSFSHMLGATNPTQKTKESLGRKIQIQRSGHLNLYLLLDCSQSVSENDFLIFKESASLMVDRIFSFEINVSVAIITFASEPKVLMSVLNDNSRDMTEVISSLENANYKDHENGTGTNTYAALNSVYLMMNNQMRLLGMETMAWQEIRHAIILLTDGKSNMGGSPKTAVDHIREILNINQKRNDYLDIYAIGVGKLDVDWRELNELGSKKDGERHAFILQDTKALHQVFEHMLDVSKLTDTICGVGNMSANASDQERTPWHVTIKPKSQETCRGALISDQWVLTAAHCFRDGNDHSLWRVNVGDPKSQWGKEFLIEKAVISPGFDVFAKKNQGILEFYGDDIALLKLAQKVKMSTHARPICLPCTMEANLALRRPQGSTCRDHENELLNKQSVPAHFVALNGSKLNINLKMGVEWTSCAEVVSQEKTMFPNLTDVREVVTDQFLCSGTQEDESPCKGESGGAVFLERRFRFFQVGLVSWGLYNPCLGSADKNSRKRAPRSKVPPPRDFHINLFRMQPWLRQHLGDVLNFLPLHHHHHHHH

B1: RF16-242 (antibody, human IgG4 S228P, lambda, V domains shown)
VH: EVQLLQSGAEVKKPGESLKISCKGSGYSFTSYWIGWVRQMPGKGLEWMGIIYPGDSDTRYSPSFQGQVTISADKSISTAYLQWSSLKASDTAMYYCARRGHYGDYFDYWGQGTLVTVSS
VL: SYELTQPPSVSVSPGQTARITCSGDALPKKYAYWYHQKSGQAPVLVIYEDRRRPSEIPERFSGSSSGTMATLTITGAQVEDEGVYFCYSRDRAGNQRVFGGGTQLTVLG
notes: pH-dependent anti-C2 antibody from a phage display library
In the case of B1, the Fold diff with human C2 F270A worked out at 15 fold; with human C2 N268A it was 2 fold; in test [1] it was 1 fold.
